Laboratory results: US20220135687A1 (NANJING LEGEND BIOTECH, published 2022)
Where two headings read alike, the source gives them in different places.

Legend:
[1] = target: T1, His-tagged PD-L1 ECD protein (ACROBiosystems) (human, UniProt Q9NZQ7 19-238); test: SPR, supernatant IgG captured, PD-L1-His analyte
T1 construct: Bought protein; also called PD-L1-His; PD-L1/His; not shown: His tag

[2] = target: T1, His-tagged PD-L1 ECD protein …; test: SPR, IgG captured by anti-human Fc, PD-L1-His analyte
Method: Briefly, capturing antibody (anti-mouse Fc antibody for the affinity measurement of mouse mAbs, or anti-human Fc antibody for the affinity measurement of chimeric and humanized mAbs, GE healthcare) was immobilized on a Biacore™ CM5 chip to approximately 7,000 RU using EDC-activated amine coupling chemistry. Antibody of interest (5 μg/ml) was captured for 60 seconds onto the sensorchip surface. His-tagged PD-L1 ECD protein (ACROBiosystems) was flowed over the sensorchip surface at a series concentrations. Flow rate was 30 μl/min in all experiments. Association and dissociation phases were 5 and 15 min, respectively. The chip was regenerated using Glycine/HCl pH 1.5. Captured antibody and antigen were removed between each cycle using 50 mM HCl in order to ensure a fresh binding surface for each concentration of antigen. The resulting sensorgrams were fit globally using a 1:1 binding model in order to calculate on- and off-rates (ka and kd, respectively), as well as affinities (KD).

[3] = target: T2, human PD-L1 expressed on CHO-K1 cells (Genscript, Cat #M00543) (human, UniProt Q9NZQ7 19-290); test: FACS competition vs biotin-PD-1-Fc on CHO-K1/human PD-L1 cells
T2 construct: also called PD-L1 cell line
T2 sequence (Q9NZQ7 19-290, one chain of several): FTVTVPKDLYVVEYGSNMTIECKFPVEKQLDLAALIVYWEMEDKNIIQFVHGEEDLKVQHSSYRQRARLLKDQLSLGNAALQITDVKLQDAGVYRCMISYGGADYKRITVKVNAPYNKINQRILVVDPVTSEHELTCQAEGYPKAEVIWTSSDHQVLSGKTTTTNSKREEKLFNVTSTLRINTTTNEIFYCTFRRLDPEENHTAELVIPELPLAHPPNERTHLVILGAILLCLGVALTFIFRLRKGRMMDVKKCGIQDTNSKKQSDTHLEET
Method: A series of diluted mouse mAbs (concentration starting from 900 nM, 3 fold dilution, 50 μl per well) were added afterwards. The mixture was incubated at 4° C. for 30 minutes, washed twice with wash buffer, followed by the addition of PEcy5/streptavidin (1 μg/ml, 150 μl/well). The plates were again incubated at 4° C. for 30 minutes before the cells in each well were analyzed by FACSCalibur (BD Bioscience, San Jose, Calif.) and Flowjo software.

[4] = target: cynomolgus PD-L1 Fc-fusion protein (cynomolgus, UniProt G7PSE7 19-238); test: SPR, cyno PD-L1-Fc immobilised, antibody analyte
Chain of cynomolgus PD-L1 Fc-fusion protein (G7PSE7 entry or part of it limits assumed): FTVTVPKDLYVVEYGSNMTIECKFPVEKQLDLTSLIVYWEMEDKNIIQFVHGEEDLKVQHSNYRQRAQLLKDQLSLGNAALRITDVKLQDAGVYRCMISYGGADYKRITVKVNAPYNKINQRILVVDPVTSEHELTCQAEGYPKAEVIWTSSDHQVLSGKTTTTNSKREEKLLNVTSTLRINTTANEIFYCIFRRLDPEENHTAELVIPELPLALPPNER

[5] = target: T2, human PD-L1 expressed on CHO-K1 cells …; test: FACS, CHO-K1/human PD-L1 cells
Method: (§1) PD-L1 stable cell line binding activity assessment of 12 mouse mAbs was carried out using FACS. CHO-K1 cells expressing human PD-L1 (Genscript, Cat #M00543) were dissociated from adherent culture flasks and mixed with varying concentrations of antibodies. The antibody and cells were incubated for 30 minutes at room temperature, washed three times with FACS buffer (PBS containing 1% BSA). PE-labeled goat anti-mouse IgG (minimal x-reactivity) secondary antibody (BioLegend, Cat #405307) was added and incubated at room temperature for 15 minutes. Cells were washed again with FACS buffer and analyzed by FACSCalibur (BD Bioscience, San Jose, Calif.) and Flowjo software. Data were analyzed with Prism 6 (GraphPad Software, San Diego, Calif.) using non-linear regression, and EC₅₀ values were calculated (FIGS. 2A-2L and Table 3).
Human and cynomolgus PD-L1 stable cell line binding activity assessment of chimeric and humanized mAbs was carried out using FACS as described above (FIGS. 9A-9L and FIGS. 10A-10L and Tables 13 and 14).

[6] = target: T3, cynomolgus PD-L1 overexpressing stable cell line (cynomolgus, UniProt G7PSE7 19-290); test: FACS, cynomolgus PD-L1 cell line
T3 construct: also called cynomolgus PD-L1 overexpressing cell line
T3 sequence (G7PSE7 entry or part of it limits assumed): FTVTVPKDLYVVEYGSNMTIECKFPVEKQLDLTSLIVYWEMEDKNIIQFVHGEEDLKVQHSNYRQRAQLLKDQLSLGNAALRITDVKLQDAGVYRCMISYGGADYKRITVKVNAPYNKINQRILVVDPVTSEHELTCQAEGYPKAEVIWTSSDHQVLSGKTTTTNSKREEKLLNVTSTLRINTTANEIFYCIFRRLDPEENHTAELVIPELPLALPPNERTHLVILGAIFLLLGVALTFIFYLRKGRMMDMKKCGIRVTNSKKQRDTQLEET

[7] = target: T2, human PD-L1 expressed on CHO-K1 cells …; test: cell-based or functional assay
[8] = target: T2, human PD-L1 expressed on CHO-K1 cells …; test: FACS, CHO-K1/human PD-L1 cells; remark: listed apart in the source
Method: as §1

[9] = target: T2, human PD-L1 expressed on CHO-K1 cells …; test: cell-based or functional assay; remark: listed apart in the source
[10] = target: T1, His-tagged PD-L1 ECD protein …; test: SPR, supernatant IgG captured, PD-L1-His analyte; remark: listed apart in the source
[11] = target: T1, His-tagged PD-L1 ECD protein …; test: SPR, supernatant IgG captured, PD-L1-His analyte; remark: listed apart in the source

T1 sequence (Q9NZQ7 19-238): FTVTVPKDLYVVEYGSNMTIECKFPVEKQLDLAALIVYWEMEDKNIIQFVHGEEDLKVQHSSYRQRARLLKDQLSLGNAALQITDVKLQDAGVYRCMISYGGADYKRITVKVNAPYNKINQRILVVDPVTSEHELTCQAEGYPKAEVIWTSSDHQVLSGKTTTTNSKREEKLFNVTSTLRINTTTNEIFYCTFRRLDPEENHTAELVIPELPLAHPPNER

Binder | Kd [1] | koff [1] | kon [1] | Kd [2] | koff [2] | kon [2] | IC50 [3] | Kd [4] | koff [4] | kon [4] | EC50 [5] | Top (best-fit value) [5] | EC50 [6] | Top (best-fit value) [6] | EC50, PD-L1 cell-based luciferase reporter assay [7] | Kd [10] | koff [10] | kon [10] | other results
53C1_VH2-VL1.M1 (antibody, human IgG1, kappa, N297A, V domains shown, Humanized, hIgG1 effector-less Fc, kappa; see recheck on K24R in the .M1 light chain) VH: EVQLVQSGAEVKKPGASVKVSCKASGYIFTGYGITWVRQAPGQGLEWIGEIFPRRVNTYYSEKFKGRATLTTDTSTSTAYMELRSLRSDDTAVYFCARDYDPYFALDYWGQGTTVTVSS VL: DIQMTQSPSSLSASVGDRVTITCRASQDVSTAVDWYQQKPGKAPKLLIYSASYRYTGVPDRFSGSGSGTDFTFTISSLQPEDIATYYCQQHYSIPFTFGQGTKLEIKR | 1 nM | 0.00025 s⁻¹ | 240000 M⁻¹ s⁻¹ | – | – | – | – | – | – | – | – | – | – | – | – | – | – | – | –
27D3D3G2 (antibody, V domains shown, Mouse mAb from hybridoma culture) VH: QVLLQQSGPELVKPGASVRISCKASGYTFTSYYMHWVKQRPGQGLEWIGWIYPGNVNTKYNEKFKGKATLTADKSSSTAYMQLSSLTSEDSAVYFCASYGNYGGWYFDVWGAGTTVTVSS VL: DIQMTQTTSSLSASLGDRVTISCRASQDIGNYLNWYQQKPDGTVKLLIYYTSRLHSGVPSRFSGSGSGTDYSLTISNLEQEDIATYFCQQGDTFPWTFGGGTKLEIK | – | – | – | – | – | – | 1.28 nM | – | – | – | – | – | – | – | – | – | – | – | EC50 [8]: 4.19 nM; Top (best-fit value) [8]: 1770; EC50, PD-L1 cell-based luciferase reporter assay [9]: 3.62 nM
29A8_VH1-VL1.M1 (antibody, human IgG1, kappa, N297A, Humanized, hIgG1 effector-less Fc, kappa; see recheck on K24R in the .M1 light chain) heavy: not shown light: DIQMTQSPSSLSASVGDRVTITCRASQDVSPAVAWYQQKPGKAPKLLIYWASTRHTGVPSRFSGSGSGTDFTLTISSLQPEDFATYYCQQHYSTPWTFGQGTKVEIKRTVAAPSVFIFPPSDEQLKSGTASVVCLLNNFYPREAKVQWKVDNALQSGNSQESVTEQDSKDSTYSLSSTLTLSKADYEKHKVYACEVTHQGLSSPVTKSFNRGEC | – | – | – | 1.4 nM | 0.0008 s⁻¹ | 590000 M⁻¹ s⁻¹ | 0.463 nM | 4 nM | 0.00043 s⁻¹ | 110000 M⁻¹ s⁻¹ | 1.75 nM | 6400 | 3.53 nM | 7470 | 2.01 nM | 1.5 nM | 0.00071 s⁻¹ | 470000 M⁻¹ s⁻¹ | –
29A8_VH5-VL1.M1 (antibody, human IgG1, kappa, N297A, V domains shown, Humanized, hIgG1 effector-less Fc, kappa; see recheck on K24R in the .M1 light chain) VH: EVQLQESGPGLVKPSETLSLTCTVSGYSITSDFAWDWIRQPPGKGLEWIGHIRFSGTTSYNPSLKSRVTISRDTSKNQFSLKLSSVTAADTAVYYCARSTLITKGFFDYWGQGTLVTVSS VL: DIQMTQSPSSLSASVGDRVTITCRASQDVSPAVAWYQQKPGKAPKLLIYWASTRHTGVPSRFSGSGSGTDFTLTISSLQPEDFATYYCQQHYSTPWTFGQGTKVEIKR | – | – | – | 0.74 nM | 0.00046 s⁻¹ | 620000 M⁻¹ s⁻¹ | 0.545 nM | 0.98 nM | 0.0002 s⁻¹ | 200000 M⁻¹ s⁻¹ | 1.31 nM | 5100 | 3.07 nM | 7950 | 1.81 nM | 0.76 nM | 0.00042 s⁻¹ | 550000 M⁻¹ s⁻¹ | –
29A8_VH4-VL1.M1 (antibody, human IgG1, kappa, N297A, Humanized, hIgG1 effector-less Fc, kappa; see recheck on K24R in the .M1 light chain) heavy: not shown light: DIQMTQSPSSLSASVGDRVTITCRASQDVSPAVAWYQQKPGKAPKLLIYWASTRHTGVPSRFSGSGSGTDFTLTISSLQPEDFATYYCQQHYSTPWTFGQGTKVEIKRTVAAPSVFIFPPSDEQLKSGTASVVCLLNNFYPREAKVQWKVDNALQSGNSQESVTEQDSKDSTYSLSSTLTLSKADYEKHKVYACEVTHQGLSSPVTKSFNRGEC | – | – | – | 1.1 nM | 0.00071 s⁻¹ | 630000 M⁻¹ s⁻¹ | 0.385 nM | 3.3 nM | 0.00044 s⁻¹ | 130000 M⁻¹ s⁻¹ | 1.05 nM | 5180 | 1.49 nM | 7820 | 1.24 nM | 1.1 nM | 0.00063 s⁻¹ | 560000 M⁻¹ s⁻¹ | –
29A8_chimeric (antibody, human IgG1, kappa, N297A, V domains shown, Human IgG1 with effector-less Fc mutations, human kappa; also called chimeric 29A8H8C7) VH: DVQLQGSGPGLVKPSQSLSLTCTVTGYSITSDFAWDWIRQFPGNKLEWMGHIRFSGTTSYNPSLKSRISITRDTSKNQFFLQLNSVTSEDTATYYCARSTLITKGFFDYWGQGTTLTVSS VL: DIVMTQSHKFMSTSVGGRVSITCKASQDVSPAVAWYQQKPGQSPKLLIYWASTRHTGVPDRFTGSGSGTDFTLTISSVQTEDLALYYCQQHYSTPWTFGGGTKLEIKR | – | – | – | 0.3 nM | 0.00019 s⁻¹ | 640000 M⁻¹ s⁻¹ | 0.3 nM | 0.48 nM | 7.3e-05 s⁻¹ | 150000 M⁻¹ s⁻¹ | 1.08 nM | 6410 | 2.77 nM | 8670 | 1.34 nM | 0.25 nM | 0.00015 s⁻¹ | 580000 M⁻¹ s⁻¹ | Kd [11]: 0.32 nM; koff [11]: 0.00017 s⁻¹; kon [11]: 530000 M⁻¹ s⁻¹

Further lines, with some results ahead:

Kd [1] | koff [1] | kon [1] | Kd [2] | koff [2] | kon [2] | IC50 [3] | Kd [4] | koff [4] | kon [4] | EC50 [5] | Top (best-fit value) [5] | EC50 [6] | Top (best-fit value) [6] | EC50, PD-L1 cell-based luciferase reporter assay [7] | Kd [10] | koff [10] | kon [10] | Binder | other results
0.49 nM | 0.00015 s⁻¹ | 300000 M⁻¹ s⁻¹ | 0.55 nM | 0.00016 s⁻¹ | 290000 M⁻¹ s⁻¹ | 0.482 nM | 0.71 nM | 6.8e-05 s⁻¹ | 95000 M⁻¹ s⁻¹ | 2 nM | 6410 | 4.66 nM | 8310 | 2.26 nM | – | – | – | 53C1_VH3-VL1.M1 (antibody, human IgG1, kappa, N297A, V domains shown, Humanized, hIgG1 effector-less Fc, kappa; see recheck on K24R in the .M1 light chain) VH: EVQLVQSGAEVKKPGASVKLSCKASGYIFTGYGITWVRQAPGQGLEWIGEIFPRRVNTYYSEKFKGRATLTADTSTSTAYMELRSLRSDDTAVYFCARDYDPYFALDYWGQGTTVTVSS VL: DIQMTQSPSSLSASVGDRVTITCRASQDVSTAVDWYQQKPGKAPKLLIYSASYRYTGVPDRFSGSGSGTDFTFTISSLQPEDIATYYCQQHYSIPFTFGQGTKLEIKR | –
0.21 nM | 7.3e-05 s⁻¹ | 350000 M⁻¹ s⁻¹ | – | – | – | – | – | – | – | – | – | – | – | – | – | – | – | 53C1_VH3.M3-VL1.M1 (antibody, human IgG1, kappa, N297A, V domains shown, Humanized, VH N57Q in the entry; hIgG1 effector-less Fc, kappa; see recheck on K24R in the .M1 light chain) VH: EVQLVQSGAEVKKPGASVKLSCKASGYIFTGYGITWVRQAPGQGLEWIGEIFPRRVQTYYSEKFKGRATLTADTSTSTAYMELRSLRSDDTAVYFCARDYDPYFALDYWGQGTTVTVSS VL: DIQMTQSPSSLSASVGDRVTITCRASQDVSTAVDWYQQKPGKAPKLLIYSASYRYTGVPDRFSGSGSGTDFTFTISSLQPEDIATYYCQQHYSIPFTFGQGTKLEIKR | –
0.72 nM | 0.00018 s⁻¹ | 250000 M⁻¹ s⁻¹ | 0.78 nM | 0.00019 s⁻¹ | 240000 M⁻¹ s⁻¹ | 0.59 nM | 1.1 nM | 9.5e-05 s⁻¹ | 87000 M⁻¹ s⁻¹ | 1.79 nM | 6230 | 2.88 nM | 8490 | 1.98 nM | – | – | – | 53C1_chimeric (antibody, human IgG1, kappa, N297A, V domains shown, Human IgG1 with effector-less Fc mutations, human kappa; also called chimeric 53C1F3D4) VH: QVQLQQSGNELARPGASVRLSCKASGYIFTGYGITWVRQRPGQGLEWIGEIFPRRVNTYYSEKFKGRATLTADISSSTAYMELRSLTSEDSAVYFCARDYDPYFALDYWGQGTSVTVSS VL: DIVMTQSHKFMSTSVGDRVSITCKASQDVSTAVDWYQQKPGQSPKLLIYSASYRYTGVPDRFTGSGSGTAFTFTISGEQAEDLAVYYCQQHYSIPFTFGGGTKLEIKR | Kd [11]: 0.75 nM; koff [11]: 0.00019 s⁻¹; kon [11]: 260000 M⁻¹ s⁻¹
